Target: Mat1 (230-309) (human, UniProt P51948)
Assay: crystal structure

Mat1 (230-309), sequence (P51948 230-309): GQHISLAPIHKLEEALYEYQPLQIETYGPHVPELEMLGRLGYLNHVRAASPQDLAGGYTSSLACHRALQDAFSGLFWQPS

- binding result: binds
B1: VHH_(RD7-04), construct for co-crystallization (VHH)
VHH: QVQLVESGGGLVQPGGSLRLSCVASGFTFKNFYMGWVRQAPDKGLEWVATINSGGEIQSYADSVKGRFTISRDNAKNTLYLQMNNLRPEDTAVYYCSKQSSTPAKGQGTQVTVSS

— publication PMC10888979 (bioRxiv, 2024)
